Test results reported in patent US20150182581A1.

What was measured:
Assay in all cases: cell-based or functional assay
[1] = biological target: HIV-1 Nef (full length Nef gene, accession no. GQ184335) cloned in VP16pCDNA+pACT mammalian two-hybrid vector (herpes simplex virus type 1; HIV-1)
[2] = biological target: ASK1(g) cloned in pEYFP-N1 (human) (UniProt Q99683)
[3] = biological target: ASK1(h) cloned in pEYFP-N1 (human) (UniProt Q99683)
[4] = biological target: ASK1i cloned in pEYFP-N1 (human) (UniProt Q99683)
ASK1i cloned in pEYFP-N1 (human), sequence (Q99683 1-904): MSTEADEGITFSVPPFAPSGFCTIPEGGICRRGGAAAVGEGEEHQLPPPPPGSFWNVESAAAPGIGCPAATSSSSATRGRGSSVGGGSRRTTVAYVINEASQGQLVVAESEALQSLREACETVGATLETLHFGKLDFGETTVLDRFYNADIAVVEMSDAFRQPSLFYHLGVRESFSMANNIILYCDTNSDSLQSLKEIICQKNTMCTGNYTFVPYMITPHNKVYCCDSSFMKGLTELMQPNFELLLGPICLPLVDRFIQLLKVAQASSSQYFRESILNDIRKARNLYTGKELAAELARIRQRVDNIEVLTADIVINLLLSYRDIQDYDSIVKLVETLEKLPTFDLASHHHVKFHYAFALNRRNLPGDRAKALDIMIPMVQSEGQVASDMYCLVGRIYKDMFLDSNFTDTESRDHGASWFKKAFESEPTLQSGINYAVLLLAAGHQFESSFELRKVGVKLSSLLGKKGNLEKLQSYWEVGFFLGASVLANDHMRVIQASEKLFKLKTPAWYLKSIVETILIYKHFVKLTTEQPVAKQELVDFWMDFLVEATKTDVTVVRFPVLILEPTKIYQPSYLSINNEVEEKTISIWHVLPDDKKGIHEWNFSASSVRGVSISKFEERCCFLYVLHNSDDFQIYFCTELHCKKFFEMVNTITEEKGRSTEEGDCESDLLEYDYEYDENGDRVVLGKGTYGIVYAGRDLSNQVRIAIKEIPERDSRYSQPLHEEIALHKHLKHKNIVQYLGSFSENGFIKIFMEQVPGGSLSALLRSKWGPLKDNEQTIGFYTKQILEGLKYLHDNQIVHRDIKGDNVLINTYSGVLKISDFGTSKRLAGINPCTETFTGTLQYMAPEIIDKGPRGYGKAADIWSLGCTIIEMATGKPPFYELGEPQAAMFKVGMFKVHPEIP

ASK1(g) cloned in pEYFP-N1 (human), sequence (Q99683 1-1050): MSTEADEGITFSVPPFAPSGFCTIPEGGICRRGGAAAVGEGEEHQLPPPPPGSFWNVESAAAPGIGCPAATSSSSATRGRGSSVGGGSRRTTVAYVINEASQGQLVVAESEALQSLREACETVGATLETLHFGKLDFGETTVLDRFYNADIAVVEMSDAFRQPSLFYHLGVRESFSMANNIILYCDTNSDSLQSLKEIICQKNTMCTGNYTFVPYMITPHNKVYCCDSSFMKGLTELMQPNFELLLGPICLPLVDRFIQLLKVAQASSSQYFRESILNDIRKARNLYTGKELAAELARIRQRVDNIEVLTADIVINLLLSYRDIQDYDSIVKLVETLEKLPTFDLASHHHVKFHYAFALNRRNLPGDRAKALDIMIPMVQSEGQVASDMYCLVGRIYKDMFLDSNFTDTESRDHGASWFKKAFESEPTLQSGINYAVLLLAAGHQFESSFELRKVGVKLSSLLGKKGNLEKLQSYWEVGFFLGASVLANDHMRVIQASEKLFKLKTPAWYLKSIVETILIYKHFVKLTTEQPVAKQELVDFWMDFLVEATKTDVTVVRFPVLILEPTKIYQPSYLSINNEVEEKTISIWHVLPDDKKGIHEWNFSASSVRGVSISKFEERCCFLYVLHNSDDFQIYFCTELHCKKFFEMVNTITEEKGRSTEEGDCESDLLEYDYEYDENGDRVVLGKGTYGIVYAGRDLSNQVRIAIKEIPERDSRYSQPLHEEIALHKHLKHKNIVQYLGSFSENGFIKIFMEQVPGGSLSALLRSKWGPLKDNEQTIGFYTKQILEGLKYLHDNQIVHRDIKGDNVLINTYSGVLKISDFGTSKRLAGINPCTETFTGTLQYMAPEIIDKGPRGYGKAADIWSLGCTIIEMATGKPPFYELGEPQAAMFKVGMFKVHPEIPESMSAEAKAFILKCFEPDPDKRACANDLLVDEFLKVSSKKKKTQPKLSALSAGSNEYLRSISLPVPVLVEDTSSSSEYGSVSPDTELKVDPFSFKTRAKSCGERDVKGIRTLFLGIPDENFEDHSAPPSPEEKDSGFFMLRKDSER
ASK1(h) cloned in pEYFP-N1 (human), sequence (Q99683 320-1050): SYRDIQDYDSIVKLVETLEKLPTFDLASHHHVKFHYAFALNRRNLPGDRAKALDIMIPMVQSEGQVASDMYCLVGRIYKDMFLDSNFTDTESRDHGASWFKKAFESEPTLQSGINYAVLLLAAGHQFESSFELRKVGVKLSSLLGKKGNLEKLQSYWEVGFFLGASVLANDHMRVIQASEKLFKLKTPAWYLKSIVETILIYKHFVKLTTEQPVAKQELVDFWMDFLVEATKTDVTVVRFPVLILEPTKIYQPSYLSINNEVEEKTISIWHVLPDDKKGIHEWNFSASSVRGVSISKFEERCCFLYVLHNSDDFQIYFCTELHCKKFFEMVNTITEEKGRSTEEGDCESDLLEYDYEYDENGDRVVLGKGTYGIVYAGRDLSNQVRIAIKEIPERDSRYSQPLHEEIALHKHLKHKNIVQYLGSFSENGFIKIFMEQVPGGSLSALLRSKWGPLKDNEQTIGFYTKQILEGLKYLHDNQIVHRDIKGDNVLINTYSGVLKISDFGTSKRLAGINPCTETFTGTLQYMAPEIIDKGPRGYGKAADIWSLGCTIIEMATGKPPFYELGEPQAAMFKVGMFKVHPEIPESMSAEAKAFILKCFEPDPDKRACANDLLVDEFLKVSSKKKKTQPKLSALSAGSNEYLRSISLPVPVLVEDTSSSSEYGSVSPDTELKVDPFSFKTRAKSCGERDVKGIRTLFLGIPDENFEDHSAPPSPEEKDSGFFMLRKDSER

## ASK1a (1-1035) cloned in pBIND (from UniProt P04386 1-147; Q99683 1-345)
[1]
  luciferase activity compared to negative control pACT-pBIND: 2.28 fold

## ASK1b (959-2010) cloned in pBIND (from UniProt P04386 1-147; Q99683 320-670)
[1]
  luciferase activity compared to negative control pACT-pBIND: 1.1 fold

## ASK1d (2581-3152) cloned in pBIND (from UniProt P04386 1-147; Q99683 861-1050)
[1]
  luciferase activity compared to negative control pACT-pBIND: 2.89 fold

## ASK1g (contain both ASK1a, ASK1d and in between sequence) cloned in pBIND (from UniProt P04386 1-147; Q99683 1-1050)
[1]
  luciferase activity compared to negative control pACT-pBIND: 154 fold

## ASK1h (Contain ASK1d and upstream sequence) cloned in pBIND (from UniProt P04386 1-147; Q99683 320-1050)
[1]
  luciferase activity compared to negative control: 8.41 fold

## ASK1i (contain ASK1a and downstream sequence) cloned in pBIND (from UniProt P04386 1-147; Q99683 1-904)
[1]
  luciferase activity compared to negative control: 2.72 fold

## ASK1j (contain in between ASK1a and ASK1d fragment) cloned in pBIND (from UniProt P04386 1-147; Q99683 320-904)
[1]
  luciferase activity compared to negative control: 0.5 fold

## HIV-1 Nef (accession no. GQ184335) cloned in pEYFP-N1
[2]
  % of Annexin V cells means apoptotic cells: 22.1%
  annexin V stained cells after co-transfection: 20%
  inhibition of apoptosis: 52%
  inhibition of apoptosis (annexin V and PI staining): 50%
  phosphorylation of JNK kinase (western blot, densitometry): 2 fold
[3]
  annexin V stained cells after co-transfection: 38%
  inhibition of apoptosis: 10%
[4]
  annexin V stained cells after co-transfection: 26%
  inhibition of apoptosis: 42%
